Reference: a protein production outcome set (Wang et al. 2014)

Test: label from the status in PepcDB records

MVSLLLISLLYLGIMLIAAKISEEIFRRIGLVTFVGPILMGILLGNGVFGVIQINEIISFITSLGIVFLLFLAGAEEFNVENRPNANVFLAVILESIIPFSVILVAIYIIGFKNYLILIVPLAMSSAGPLSRMLMDVKISDNRISNLIFQQVILIEIIFVILFAILLKTSEILITIIEIFLVFAFTIMFGRTLAKILEKIEYYFKAREIEFASLIAIILIIGYLAELYKFNSAISAFFLGILLKDYLKDRPELLERLHAFTYGFFEPLFFLGIGLYVTKINASIILFSLLFFSLIIASKFLAGFISSKILNIKGKINGFATSVKGGVDSSLLLTGLTLGYINEFMYSFSILAISLSALIVPLLFQINFKISNKISESKKVKLSQEVIKLQIKPLYASCEENLRSVISKISERGVRGIVVVNYENKPLGYVSIQTLLEIDPELYESTKACEVPLDEVPIEYDNVKVIDLLRKFRETEKPVIAIINKEGVLVTTVYERELARFLISF
protein production: failed

MVSSLSVYYRKLAYHVIESDGFLWVGFKPGMVHFIAKEVWNIRPLTRTDVERYYEEFTVLTQGKGSLYFRIVAHGGFLKEALAYELHGLTVSDDNYLRSLNSGRHVELYPHNEKAYRAIIKGFEQHRIGTVVQATGTGKSYLLARYISDHATERICVFAPNVTILEEIKKAVGFTSPYICYRTFQSLIYYRKNDKQLKADHILIDEFHHFGAEIWGAALQEVIESNPQAYILGTSATPIRPEGMIDTVDLYFEGNLFYELTLPQAWYYRILPVPILVQSAYGLDGELNRLQKRLDRSGCSIRRKEQVQKKLDVARVDFKGALGAPEVIRKFLPKDVCKLLVFCRDLTDLKQMVPEVCGWLTQAGRVIIPFEIHHTQSERINNQILKAFQKESGKLHVLFSVNMLIEGLHVEGIDAVLFLRRTESYIVTLQQLGRCLDAGSGKQPVVLDFVNNLSGKSVYDMMALHMERLACQPSPKGFEGVTSFLTTGFLSDIRLRIEEILTELEPWQIMYERLIEFRKKENDWPSVTEGKLGLWCNTQRMAYKRGRLSEERYKLLESVGFEWNLLDSNWMKEFQSLKVFFATQGRWPKREDGALATWCYTQRERRKKGRLSKERIRVLDEIGFVWSQDLNGEWMKNYEALKIFLDKQQRFPKSAEGYLGEWCSTQRKMRKQGKLSPDRQTLLDRIGFVWSVEQVWRSHLEQLHQFHVQNGRWPGCREGALGRWCTVQRRNYRRGSLSDQKIVQLEQIGFIPLKGDE
protein production: failed

MVSSSLSLTTLAGGTLLLKGSPSTLFYKHGRTLFIVDPGHGRKRAKQISKAAEKLGGEAVAIITHFHSDHLSTLYQGFQPSTALAPVKDLAMVQDRVMRLHYTFGYPFTGAEDYLLFKAEDVDNVEPLEAERIKPLRLVPLPGHTPGQTGVETPDGVLYAADSIFGERVLQTYAVPYHSNPCQALETLTRLRDRVNRLEVIVPSHGKPVKGEEAERLLEMNIERLEDAWTALTEELSRAPASVGLLASTLMKRYGAEATPTLAILVETAVRGYIGCHGAELEPILESGVVKWRVRRR
protein production: failed

MVSTLGSDTFTSISAHDLHGKLGNIHLIDVRENDDFKEGHIPTSRNIPMDILLKEPEKYINKTDEYYIVCQAGVKSEKTCKELWSKGYKVINIKDGTDSYKQPLEHHHHHH
protein production: failed

MVSTVRTVLGDVLPEHLGVCDAHDHLFFGSPQLPGQELRDASAARAELAAFREQGGGSVVQWTPYGLGRRAADLPLLSRDTGVHVVAATGLHQAVHYDAGTLAELRGRLADTFVAELTTGIGPSGVRAGLIKVAGGFHALDAHARWTMTAAAEAHHATGAPIAVHLELGTGALDVLDLLCGESGVPPHRVILGHLNRSPDFTVHRQAAEAGAFLAFDGPSRANHATDWRMPDALRALAEAGFGHRLLLGGDTTTAAARSVNGGPGLPYLLRRLRPRLEQALGKDLVGRIFTENPGRAFGVEWR
protein production: failed

MVSVGGDSVADSTVNQAKQSIRRSESITMERIVSFTLEEVPESIAKLEDKLFSYLLDLEGLASGRQRQTMSGEVGFGVLKAIDDQTIQDRLHW
protein production: failed

MVSVSVVIATLKPRDEIEAIQCLEDQTFDDFEVIVCDKSPVTRARNEGIRQSSSDKIVFLDDDSRPQPGYLEKANDVLETEAAYAGRTIHPVDDVFARHFTAHYDWGGDPCYVDHFWGCNMGVHRDVFKTVGGWDEEMGWGHEEKELARRVRSEFDIRYDPELVVDHPYASSITDYWKKQYKLETKSPYYWSKCNVSRADQLKNIFCETFDPLNYVRITPVATMIEAGSTVAKTAGRLRGFLDHTHHEEGRGGVPDIDRPSQSPERSGLEHHHHHH
protein production: failed

MVSWHPSVYLAQRTSKAAKNILAAPPLILSISFIFLILIGTLILKLPISTTVPVTWSQSLFNATSAVTVTGLVVFDVGTVYTTFGQVVIALLIQLGGLGIMTFAIVTLLALGAKIGFLQNTIAKEAYNSTNTATLVTTAKSVLIFSLCVELIGMIILAVSWSDELGWRTSLFHGFFYTISAFNNAGIGLSPDSLMPYVEDPIINLTITALFIIGGLGFTVWIDLWRKKRWDKLTTYSKMMIIGTISINAIAVLAIYCIEYNNPKTLVPLSETGKWLASWFQAVTPRTAGFNTLAMNELEDATTAIMLMLMFIGGGSLSTASGIKVVTFMVLILATYGYLRRYDFVYVYHRGISKDTISKALALAMISVGTIWASIFFLLLSENASMIDIIFEAVSAFGTVGLSRGLTSNLTVTGQFIIIFLMFMGRLGPLTLAYFLASPKSKRIRYPETKLTIG
protein production: failed

MVSYKILSVANKLKNIRDKYGLSQEDLAGNEITRNLISQIEHNKANLTRSAAEIMLKNLKKICDKKNVQVDEDINYLMEDEKSQAIKVLDKYIDDLRDLTIYKDNVFINKLREVEDFLVTWDFRDKKITIFELAGDYFSSTNDFYNASLYYEKAKALIDINIYSDNIVHILRKLSMTYYYMLRYQDDINCCEFALKQFKNMDEEYRCIFLFNSSLCYGQLKKYDLALKRLNEVESIIKNIDQNKYYEVLIQKAICYQWMKEYQKSLDIYNKLLESIDKSDYEKYLFILVNSSDIYVENSNFEKAESNLRIILENINNLNESSTLLPSTYLEMSRILKKLGYTKDAELYCLKSLNYAKRNTHYYLVNDIYGELLDIYKTLNVPEKVQTIKDEFFSNSSRDKNLNSKLMFKLLDFYFATNDIHSIKEIYDFSKNFIQERMINLCY
protein production: failed

MVTDKSKKAKTEEENVEQIDAELVLSIEKLQEIQDDLEKINEKASDEVLEVEQKYNVIRKPVYDKRNEIIKTIPDFWLTAFLSHPALGELLTEEDQKIFKYLSSLDVEDAKDVKSGYSITFSFNPNPFFEDGKLTKTFTFLEEGTTKITATPIKWKEGKGLANGVNHEKNGNKRALPEESFFTWFSDAQHKEDVEDEMQDEVADIIKEDLWPNPLTYFNNDADEEDFDGDDDGDEEEKEGDSDEDDDEEDEVGEE
protein production: failed

MVTGYEALERHRGVRRPRRKLSRREKHAWKKAQKYELKLHKAHEKEERKLAKQAAKQAAREEKAAQKQAKKAERHKKKTKPPGSVKSSGKKGVAKKISSTNKDSRNKGKNITAQQSIPYREMGKDGICRVEDGYYSKTIRFYDINYQLAQNEDKNAIFENWCDFLNYFDSTIHFQLSFINHHSNMTEYEDVIRIKKQNDSFDDLRMEFAQMLRNQLAKGNNGLIRTKYITFGIEADNIREAKPKLERIETDILNNFKVFGVSAYPLNGAERLQIMYETFNQNVKVPFRFSYDDMLRTGLNTKDYIAPSSFLFKNGKDFQMGDTVGAVSYLQILAPELTDKMLAEFLEMDCNLLVNLHIQSIDQMKAIKLVKSKVTDINRMKIEEQKKAVRSGYDMDIIPSDLNTYGGEAKRLLEDLQSRNERMFLVTVVFLNTAKNKQELENVVFQTAGIAQKYNCALKRLDYQQEQGLMSSLPLGRNWIPIKRALTTTSTAIFVPFTTQELFMGGESIYYGLNALSNNLIMADRKKLKNPNGLILGTPGSGKSFAAKREITNVFIVTKDDIIICDPEGEYFPLVRAFNGQVIRISPTSHDYINPMDININYADDDDPLSLKSDFILSLCELVVGGKNGLEPVEKTIIDRCVRLVYQDYLADPVPEKMPILEDLYNLLRKQEEAESQRLATALEIYVNGSLKVFNHRTNVELNNRLVCFDIKDLGKQLKKLGMLIVQDQVWNRVTVNRSAHKSTRYYIDEFHLLLKEEQTAAYSVEIWKRFRKWGGIPTGITQNVKDLLASREIENIFENSDFILMLNQASGDRQILAKQLNISTHQLSYVTNSGEGEGLIFYGNTIIPFKDRFDNTLMLYALMSSKPEDVEKREKLGIKGRDDS
protein production: failed

MVTKEQVVEALEGIVDPFLHKTLKETSAIKEVTVKPEKEHVSVKIAIVKTGTAEQMQLQSGIVKLVKELGAATVGLRFAEFTEEELAQFAPEQEEEQSESLLSPNSKTTFLAVASGKGGVGKSTVSVNLAVALARLGKKVGIIDADIYGFSVPDMMGIEKRPIVRGDKIIPVERLGVKVISMGFFVEDNAPVIWRGPMLGKMLNHFFTEVEWGDLDYLVLDLPPGTGDVALDVHSMLPSCKEIIVTTPHPTAAFVAARAGAMALRTEHSILGVVENMAYFESKVTGEKEYVFGKGGGDKLATELQTNVLGRIPLQQPDWNKEDFAPSVYEDTHTTGIIYSKIAETVIDKTAVTQKLEHHHHHH
protein production: not failed

MVTLCQVFGVHRSSYRYWKNRPEKPDGRRAVLRSQVLELHGISHGSAGARSIATMATRRGYQMGRWLAGRLMKELGLVSCQQPTHRYKRGGHEHVAMPKWVILYCRRWMEAPMQSCENGELITRTRGTPQGGVISPLLANLFLHYAFDLWMEREYRGVPFERYADDIVVHCSRMSDATRLKNRLSERFSEVGLVLNAGKTNIAYIDTFKRRNVATSFTFLGYDFKVRTLKNFKGERYRKCMPGASNAAMRKITETIKKWRIHRSTAESLLDFARRYNTIVRGWIEYYGKFWSRNFNYRLWSAMQSRLLKWMQSKYRLSNRKAQRKLTLVRKEYPKLFVHWYLLRASNE
protein production: failed

MVTNQKHLEDFGYLKMTQKEGTILPEEYVSIIQHPKGGPKSVTLRENKVSGLKENFIHYLTDTEPGSSGSPVFNDQWTLVALHHSGVPNPEIKDLEHHHHHH
protein production: not failed

MVTQKQRRLWAFLAALACVMWGISGLFAKSLFNISSDITPMWLSQIRMVTSGIILLIVAGILKQKPIATMKNKHDAWVIIAYGIFGLLPVQLFYFIVVQQANASIATILQFVGPFFVMGYLAFTHKQVMRRIDVIAAIFAFIGVVLLATHGRFNHLAITPSVLFWGLLSAVGVATNTLIPIGVLKRVSSLVVTGWGLLSAGICLMIVHPQMPHIPNTPHVWLDVLAVIVIGTLIPFQLMTNSLRFIKASTASLLDAFEPFSATLGSVLCFGLVMTPMDWIGSILVVLAAMALNISPKKKKGKLDGKSQD
protein production: failed

MVTSSQVMLMPAHDSAKPTGFGIMVTSLDLLRDHQKVIHTLWFIDDVVARELGGFDGFCRRERVLLLFVDSTNTTLSFTRNDMTCVPRQGGADSDHWLFKRHLALLLPLSFAQVYEGFISFYEEEDKHISWDIKSCSSSSHQ
protein production: failed

MVTTRKPLRAAIIGLGRLGERHARHLVNKIQGVKLVAACALDSNQLEWAKNELGVETTYTNYKDMIDTENIDAIFIVAPTPFHPEMTIYAMNAGLNVFCEKPLGLDFNEVDEMAKVIKSHPNQIFQSGFMRRYDDSYRYAKKIVDNGDIGKIIYMRGYGIDPISGMESFTKFATEADSGGIFVDMNIHDIDLIRWFTGQDPVQAYGLTSNIAAPQLADIGEFETGVAQLKMSDGVIATLIGGRHAAHGNQVELEVMGSNGWVRIGEHPDLNRVTVFNDQGVVRPSLQSFGERFDTAFTDEVQDFVNNVIVGKQPEVTVDDGIKALKIAKACQQSANIGKLVDIQL
protein production: failed

MVVADGHDLQESPLRWIPFLAVFLYVYIEISIFIQVAHVLGVLMTLILVIFTSVIGMSLVRNQGFKNFLLMQQKMAAGESPAAEMIKSVSLIIAGLLLLLPGFFTDFLGLLLLLPPVQKHLTLKLLPHLRFSRMPGGGFSAGTGGGETFDGEYQRKDDDRDRIEHKDDRRD
protein production: failed
